Measured values reported in patent US20220073641A1, “FUSION PROTEIN OF ANTIBODY THAT RECOGNIZES CANCER CELLS AND MUTANT STREPTAVIDIN” (The University of Tokyo, priority 2018, published 2022).

How the values were obtained:
MKN45 cells [1] = assay: In vivo cytotoxicity test in MKN45 xenograft mouse models with 690 nm light; design: species or system nude mice; details: 100 μg complex of CEA-V2122 and Compound 1 via caudal vein; 690 nm 230 J/cm^2 at 6 and 24 hours; pathology on 7th day; FIG. 11, 12
Text: MKN45 cells were subcutaneously transplanted into nude mice to produce xenograft mouse models. That is, 4-week-old female nude mice were purchased, and the mice were then acclimated for 1 week. Thereafter, the MKN45 cells were transplanted in a cell count of 2×10^5 cells per mouse into the subcutis thereof. […] Using an LED light source emitting a light having a wavelength of 690 nm (USHIO OPTO SEMICONDUCTORS, INC., LD690D-66-60-550.), T-Cube LED Driver (THORLABS, NC0713145), and T-CUBE 15V POWER SUPPLY (THORLABS, TPS001), 6 hours after the administration, the mice were irradiated with the light having a wavelength of 690 nm, so that the irradiation energy became 230 J/cm^2. Twenty-four hours after administration of the complex, the mice were irradiated again with the light having a wavelength of 690 nm, so that the irradiation energy became 230 J/cm^2. Individual mice were euthanized on the 7th day after administration of the complex and were then excised, and the tumor portions were subjected to pathological analysis. The specific method is as follows. That is, the subcutaneous tumor of each mouse and the peripheral tissues thereof were excised as a mass, and the mass was then immersed in a 4% paraformaldehyde solution (Wako Pure Chemical Industries, Ltd., 163-20145) at mom temperature overnight, so that the tissues were fixed. […]

MKN45 cells [2] = assay: Cytotoxicity test using CEA-V2122 and photoactivatable compound-labeled modified biotins with 690 nm light; details: complex with CEA-V2122 (molar ratio 1:2), 0.039-10 μg/mL, 690±10 nm 100 J/cm^2, 48 hours, Cell Counting Kit-8; FIG. 8
Protocol: Specifically, MKN45 cells were seeded on a 96-well plate for cell culture, so that the cell count became 5×10^3 cells/well and the amount of the culture solution became 50 μL/well, and thereafter, the cells were cultured overnight. […] Regarding serial dilutions, 20 μg/mL was set to be an initial concentration, from 4-fold serial dilutions (5.0 μg/mL, 1.25 μg/mL, 0.312 μg/mL, and 0.078 μg/mL), 5 complex serial dilution solutions were prepared. Besides, a medium alone that contained no complex was used as a zero control.
Such complex serial dilution solutions were each added in an amount of 50 μL/well to the cells cultured overnight, so that the final concentrations became 10 μg/mL, 2.5 μg/mL, 0.625 μg/mL, 0.156 μg/mL, and 0.039 μg/mL One hour and two hours after addition of the complex, the cells were irradiated with a light, using LED emitting a light having a wavelength of 690±10 nm, so that the irradiation energy became 100 J/cm^2. […] Each condition was set to be n=3. The dosage and administration were determined in accordance with the instruction manuals included with the kit, and after addition of the reagent, the mixture was incubated for 1.5 hours at 37° C., in a CO2 incubator. Thereafter, the absorbance at 450 nm was measured, and the mean value was then calculated, followed by background collection. […]

[3] = target: T1, Recombinant Human CEACAM-5/CD66e Protein, CF (R & D SYSTEMS) (human, UniProt P06731 35-685); assay: SPR (Biacore T200), CEACAM5 immobilized on CM5, CEA-V2122 as analyte, single-cycle kinetics, bivalent analysis fit
T1 construct: Purchased protein, amine-coupled to a CM5 chip; also called antigen CEACAM5
T1 sequence (looked up): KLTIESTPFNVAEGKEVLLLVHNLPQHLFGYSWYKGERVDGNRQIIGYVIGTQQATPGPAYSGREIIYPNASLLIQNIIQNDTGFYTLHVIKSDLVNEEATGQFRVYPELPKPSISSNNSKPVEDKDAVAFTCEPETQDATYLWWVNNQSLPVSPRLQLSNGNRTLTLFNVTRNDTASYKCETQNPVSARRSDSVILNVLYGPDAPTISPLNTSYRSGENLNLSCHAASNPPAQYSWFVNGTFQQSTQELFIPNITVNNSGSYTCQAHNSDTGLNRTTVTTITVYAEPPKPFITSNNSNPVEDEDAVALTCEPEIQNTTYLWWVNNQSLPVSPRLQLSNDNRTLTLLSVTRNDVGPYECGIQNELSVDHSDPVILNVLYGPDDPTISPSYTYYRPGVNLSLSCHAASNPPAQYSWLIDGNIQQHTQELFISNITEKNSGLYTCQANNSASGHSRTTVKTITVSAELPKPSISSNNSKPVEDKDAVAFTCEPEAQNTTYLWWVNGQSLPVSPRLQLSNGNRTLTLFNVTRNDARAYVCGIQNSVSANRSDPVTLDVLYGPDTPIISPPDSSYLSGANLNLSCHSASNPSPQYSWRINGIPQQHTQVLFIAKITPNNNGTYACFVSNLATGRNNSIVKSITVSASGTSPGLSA

[4] = SPR (Biacore T200) interaction between immobilized CEA-V2122 and a modified biotin; format: binding
Protocol: Furthermore, the interaction between CEA-V2122 and a modified biotin was also analyzed using Biacore T200. The modified biotin was specifically the title compound 14 described in Example 1 of International Publication WO2018/07239. In addition, the analysis method was specifically as follows. That is, an amine-coupling kit was used, a target value was set to be 5000 RU, and the purified CEA-V2122 was immobilized on Sensor Chip CM5.

CEACAM5 [5] = target: T2, CEACAM5 (Homo sapiens, UniProt P06731); assay: SPR (Biacore T200) affinity of CEA-V2122 for immobilized antigen CEACAM5; format: binding; design: purchased R & D SYSTEMS
T2 sequence (P06731 35-676): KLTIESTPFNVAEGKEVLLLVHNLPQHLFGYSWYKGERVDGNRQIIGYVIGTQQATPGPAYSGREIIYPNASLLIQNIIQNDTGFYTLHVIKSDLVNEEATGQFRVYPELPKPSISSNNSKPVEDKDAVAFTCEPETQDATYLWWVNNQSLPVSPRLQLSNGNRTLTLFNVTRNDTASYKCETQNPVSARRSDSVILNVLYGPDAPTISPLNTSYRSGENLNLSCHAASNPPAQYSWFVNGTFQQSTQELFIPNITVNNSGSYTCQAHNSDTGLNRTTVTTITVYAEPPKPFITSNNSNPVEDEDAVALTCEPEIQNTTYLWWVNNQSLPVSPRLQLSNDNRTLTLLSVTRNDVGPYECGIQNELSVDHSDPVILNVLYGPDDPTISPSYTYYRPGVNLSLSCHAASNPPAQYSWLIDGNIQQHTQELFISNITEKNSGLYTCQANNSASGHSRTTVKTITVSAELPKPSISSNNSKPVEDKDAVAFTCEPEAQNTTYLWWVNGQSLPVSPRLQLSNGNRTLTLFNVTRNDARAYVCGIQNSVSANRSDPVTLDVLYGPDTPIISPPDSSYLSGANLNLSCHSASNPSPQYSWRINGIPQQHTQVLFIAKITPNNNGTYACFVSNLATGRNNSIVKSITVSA

CEACAM5 [6] = target: T2, CEACAM5; assay: Cell staining of CEACAM5-expressing cell line using FITC-labeled CEA-V2122; format: cell-based
Protocol: In order to stain a CEACAM5 expression-positive cancer cell line, FTC labeling was carried out on the cell line, using 100 μg of a purified CEA-V2122 protein. Specifically, labeling was carried out using Fluorescein Labeling Kit—NH2 (DOJINDO LABORATORIES) in accordance with the dosage and administration described in the operating manual included with the kit, and the obtained product was defined to be CEA-V2122-FITC. Specific staining of the CEACAM5 expression-positive cancer cell line is as follows. That is, CEACAM5-positive human stomach cancer-derived MKN-45 cells and CEACAM5-negative human colon cancer-derived DLD1 cells were each seeded on a CELLSTAR, μClear, 96-well plate (Greiner) to a cell density of 2.0×10^4 cells/well, and thereafter, the cells were cultured overnight. Subsequently, a culture solution containing 20 nM CEA-V2122-FITC and 1 μM Hoechist was added to the 96-well plate to a concentration of 100 μL/well, and the obtained mixture was then reacted at 4° C. for 30 minutes. Thereafter, each image was taken using In Cell Analyzer 6000 (GE Healthcare Life Sciences).

[7] = single-cycle kinetics, bivalent analysis mode, CEA-V2122 immobilized, modified biotin analyte
[8] = single-cycle kinetics, bivalent analysis mode, CEACAM5 immobilized, CEA-V2122 analyte

C[Si](C)(CCC[N+](CCCS(=O)(=O)[O-])(CCCS(=O)(=O)O)CCCS(=O)(=O)O)O[Si]1(O[Si](C)(C)CCC[N+](CCCS(=O)(=O)[O-])(CCCS(=O)(=O)O)CCCS(=O)(=O)O)N2/C3=N\C4=NC(=N\c5c6c(OCCCOC(=O)NCCCCCC(=O)NCCOCCOCCN(CC(=O)NCCCCNC(=O)CCCC[C@@H]7SC[C@@H]8NC(=N)N[C@@H]87)CC(=O)NCCCCNC(=O)CCCC[C@@H]7SC[C@@H]8NC(=N)N[C@@H]87)cccc6c(n51)/N=C1\N=C(NC2c2ccccc23)c2ccccc21)/c1ccccc14 (stereo partly drawn) [Compound 1]
tumor necrosis (MKN45 cells [1]): necrosis can be induced to the tumor of the xenograft mouse model
cytotoxicity (MKN45 cells [2]): exhibits cytotoxicity in a concentration-dependent manner

B1: CEA-V2122 (scFv)
chain: QVKLEQSGAEVVKPGASVKLSCKASGFNIKDSYMHWLRQGPGQRLEWIGWIDPENGDTEYAPKFQGKATFTTDTSANTAYLGLSSLRPEDTAVYYCNEGTPTGPYYFDYWGQGTLVTVSSGGGGSGGGGSGGGGSENVLTQSPSSMSVSVGDRVNIACSASSSVPYMHWLQQKPGKSPKLLIYLTSNLASGVPSRFSGSGSGTDYSLTISSVQPEDAATYYCQQRSSYPLTFGGGTKLEIKGGGGSGGGGAEAGITGTWSDQLGDTFIVTAGADGALTGTYENAVGGAESRYVLTGRYDSAPATDGSGTALGWTVAWKNNSKNAHSATTWSGQYVGGADAKINTQWLLTSGTTNANAWKSTLVGHDTFTKVKPSAASHHHHHH
notes: also called CEA-Cupid; scFv-V2122
Kd [3]: 1.08 pM

B2: CEA-V2122: scFv-type anti-CEACAM5 antibody bound with mutant streptavidin V2122 via linker GGGGSGGGG; SEQ ID NO: 3 (protein)
chain: B1 chain
binding to a modified biotin ([4]; from the KD value in the sensorgram, FIG. 4): strongly binds to a modified biotin
ka1 [4, 7]: 3.792E+4
kd1 [4, 7]: 4.424E−6
KD=kd1/ka1 (CEACAM5 [5]; bivalent analysis mode): 1.078E−12
binding to CEACAM5 (CEACAM5 [5]; from the KD value in the sensorgram, FIG. 3): strongly binds to CEACAM5
ka1 (CEACAM5 [5]; [8]): 3.208E+5
kd1 (CEACAM5 [5]; [8]): 3.461E−7

B3: CEA-V2122-FITC: purified CEA-V2122 protein labeled with Fluorescein Labeling Kit—NH2 (protein)
chain: B1 chain
recognition of CEACAM5 on cells (CEACAM5 [6]; 20 nM, 4° C., 30 minutes, CEACAM5-positive MKN-45 vs CEACAM5-negative DLD1 cells, FIG. 5): specifically recognizes CEACAM5 on the surface of the cell membrane
localisation of CEACAM5 after binding (CEACAM5 [6]; MKN45 cells, time series, FIG. 6): the CEACAM5 stays on the surface of the cell membrane
